Here are results for one molecule from paper PMC3382582, “The Estrogen-Related Receptor Alpha Upregulates Secretin Expressions in Response to Hypertonicity and Angiotensin II Stimulation”.

This data set addresses T1, ERRα (in vitro translated) (Mus musculus, UniProt O08580 1-422).
T1 sequence: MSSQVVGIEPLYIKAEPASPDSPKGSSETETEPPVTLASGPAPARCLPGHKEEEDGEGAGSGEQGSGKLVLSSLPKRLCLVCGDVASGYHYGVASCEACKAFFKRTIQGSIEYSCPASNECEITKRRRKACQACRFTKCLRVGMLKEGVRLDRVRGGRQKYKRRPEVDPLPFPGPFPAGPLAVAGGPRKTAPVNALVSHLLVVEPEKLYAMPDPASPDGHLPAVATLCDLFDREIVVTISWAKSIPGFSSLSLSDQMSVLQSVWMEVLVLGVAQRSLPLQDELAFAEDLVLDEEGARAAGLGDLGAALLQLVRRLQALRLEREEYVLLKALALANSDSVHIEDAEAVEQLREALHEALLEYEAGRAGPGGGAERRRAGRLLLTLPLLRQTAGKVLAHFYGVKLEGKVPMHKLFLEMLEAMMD
Briefly: EMSA; 2.5 mM MgCl2, poly(dI:dC); EMSA: 10 mM Tris pH 7.5, 50 mM NaCl, 2.5 mM MgCl2, 0.5 mM DTT, 4% glycerol, 2 µg poly(dI:dC), 1 pmol probe, 20 µl, room temperature 15 min; 5% polyacrylamide gel. The note with it: protein: ivt; label: 32P 5' end label (T4 PNK); strands as printed are 17 and 16 nt; S6 lacks one G relative to the exact complement of S5 (possible misprint).

B1: GS-ERRα (SCT promoter ERE-half site oligo) (dsDNA)
DNA 1: GCCCCTGACCTTCCCGG
DNA 2: CCGGGAAGGTCAGGGC
As to B1, the binding result is on record as “binds”.
